Test results reported in article PMC9482650, “Quantitative fragmentomics allow affinity mapping of interactomes” (Nature Communications, 2022).

Legend:
Assay in all cases: holdup assay
Design in all cases: key: below the threshold = too weak to quantify, mostly under pKd 3.1 to 4
MAGI1_3, Q96QZ7 = target: MAGI1_3, Q96QZ7
MAGI1_6, Q96QZ7 = target: MAGI1_6, Q96QZ7
MAGI3_4, Q5TCQ9 = target: MAGI3_4, Q5TCQ9
MPDZ_2, O75970 = target: T1, MPDZ_2, O75970
T1 sequence (O75970 252-347, limits assumed, looked up): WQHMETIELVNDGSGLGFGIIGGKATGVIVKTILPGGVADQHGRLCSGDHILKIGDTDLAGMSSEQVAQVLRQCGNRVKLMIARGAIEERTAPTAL

MPDZ_3, O75970 = target: T2, MPDZ_3, O75970
T2 sequence (O75970 372-473, limits assumed, looked up): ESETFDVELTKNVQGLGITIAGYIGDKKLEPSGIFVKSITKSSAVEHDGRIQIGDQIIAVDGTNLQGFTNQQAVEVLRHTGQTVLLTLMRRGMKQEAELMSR

MPDZ_7, O75970 = target: T3, MPDZ_7, O75970
T3 sequence (O75970 1146-1253, limits assumed, looked up): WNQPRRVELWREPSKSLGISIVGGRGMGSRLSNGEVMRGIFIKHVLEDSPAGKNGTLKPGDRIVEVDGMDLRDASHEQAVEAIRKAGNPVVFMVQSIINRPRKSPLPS

NHERF4_3, Q86UT5 = target: NHERF4_3, Q86UT5
PARD3B_3, Q8TEW8 = target: PARD3B_3, Q8TEW8
PDLIM4, P50479 = target: PDLIM4, P50479
PDZD11, Q5EBL8 = target: T4, PDZD11, Q5EBL8
T4 sequence (Q5EBL8 42-139, limits assumed, looked up): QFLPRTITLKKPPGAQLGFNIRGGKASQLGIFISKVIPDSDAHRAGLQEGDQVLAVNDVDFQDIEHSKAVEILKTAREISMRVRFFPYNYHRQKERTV

PDZD2_5, O15018 = target: T5, PDZD2_5, O15018
T5 sequence (O15018 2617-2716, limits assumed, looked up): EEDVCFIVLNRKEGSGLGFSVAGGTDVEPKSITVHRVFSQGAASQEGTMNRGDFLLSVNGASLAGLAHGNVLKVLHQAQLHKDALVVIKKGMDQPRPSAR

PDZRN3_2, Q9UPQ7 = target: T6, PDZRN3_2, Q9UPQ7
T6 sequence (Q9UPQ7 414-513, limits assumed, looked up): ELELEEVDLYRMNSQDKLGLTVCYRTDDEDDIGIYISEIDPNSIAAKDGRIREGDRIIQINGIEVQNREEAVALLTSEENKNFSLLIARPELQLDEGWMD

PDZRN4_2, Q6ZMN7 = target: PDZRN4_2, Q6ZMN7
PREX2_2, Q70Z35 = target: T7, PREX2_2, Q70Z35
T7 sequence (Q70Z35 672-764, limits assumed, looked up): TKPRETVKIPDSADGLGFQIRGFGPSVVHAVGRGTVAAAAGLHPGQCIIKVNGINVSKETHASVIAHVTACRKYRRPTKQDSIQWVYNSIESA

PTPN13_4, Q12923 = target: T8, PTPN13_4, Q12923
T8 sequence (Q12923 1783-1878, limits assumed, looked up): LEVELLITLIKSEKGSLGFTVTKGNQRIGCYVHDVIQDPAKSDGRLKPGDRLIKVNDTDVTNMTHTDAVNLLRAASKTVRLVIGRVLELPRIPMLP

PTPN13_5, Q12923 = target: T9, PTPN13_5, Q12923
T9 sequence (Q12923 1877-1975, limits assumed, looked up): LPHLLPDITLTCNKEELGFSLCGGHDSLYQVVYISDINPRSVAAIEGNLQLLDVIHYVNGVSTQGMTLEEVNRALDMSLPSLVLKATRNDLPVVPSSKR

SHROOM4, Q9ULL8 = target: T10, SHROOM4, Q9ULL8
T10 sequence (Q9ULL8 5-102, limits assumed, looked up): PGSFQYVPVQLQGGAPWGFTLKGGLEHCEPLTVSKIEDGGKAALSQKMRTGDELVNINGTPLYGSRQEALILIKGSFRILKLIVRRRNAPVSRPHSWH

SYNPO2L, Q9H987 = target: T11, SYNPO2L, Q9H987
T11 sequence (Q9H987 1-98, limits assumed, looked up): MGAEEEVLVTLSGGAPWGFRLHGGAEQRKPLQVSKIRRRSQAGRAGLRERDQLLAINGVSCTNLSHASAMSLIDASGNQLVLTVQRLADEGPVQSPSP

TJP3_1, O95049 = target: T12, TJP3_1, O95049
T12 sequence (O95049 6-103, limits assumed, looked up): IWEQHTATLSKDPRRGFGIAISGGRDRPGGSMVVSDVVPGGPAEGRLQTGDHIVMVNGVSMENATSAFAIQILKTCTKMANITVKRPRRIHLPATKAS

CNKSR1, Q969H4 = target: T13, CNKSR1, Q969H4
T13 sequence (Q969H4 191-295, limits assumed, looked up): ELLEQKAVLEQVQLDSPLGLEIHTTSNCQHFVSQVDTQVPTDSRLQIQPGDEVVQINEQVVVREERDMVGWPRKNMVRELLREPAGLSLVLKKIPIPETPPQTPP

GRIP2_2, Q9C0E4 = target: GRIP2_2, Q9C0E4
LIMK1, P53667 = target: LIMK1, P53667
[1] = plain residues with an end cap or a label only (N-terminal biotin on a linker: ttds)
[2] = plain residues with an end cap or a label only (N-terminal biotin on a linker: none)

MAGI3_4, Q5TCQ9, sequence (Q5TCQ9 716-815): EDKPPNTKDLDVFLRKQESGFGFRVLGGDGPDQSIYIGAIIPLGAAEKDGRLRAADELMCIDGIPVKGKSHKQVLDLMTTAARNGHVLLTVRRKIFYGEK
MAGI1_6, Q96QZ7, sequence (Q96QZ7 1146-1238): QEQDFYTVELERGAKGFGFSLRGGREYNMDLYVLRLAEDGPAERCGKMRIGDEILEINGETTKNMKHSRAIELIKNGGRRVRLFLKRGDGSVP
MAGI1_3, Q96QZ7, sequence (Q96QZ7 638-725): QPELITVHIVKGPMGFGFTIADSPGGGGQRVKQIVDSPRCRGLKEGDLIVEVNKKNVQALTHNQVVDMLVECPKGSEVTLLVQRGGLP
PDLIM4, P50479, sequence (P50479 1-83): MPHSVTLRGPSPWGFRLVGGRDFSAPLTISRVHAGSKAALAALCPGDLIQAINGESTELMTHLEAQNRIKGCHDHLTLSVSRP
PDZRN4_2, Q6ZMN7, sequence (Q6ZMN7 389-498): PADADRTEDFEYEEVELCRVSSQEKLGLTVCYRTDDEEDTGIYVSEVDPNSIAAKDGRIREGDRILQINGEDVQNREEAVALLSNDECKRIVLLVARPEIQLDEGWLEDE
NHERF4_3, Q86UT5, sequence (Q86UT5 325-412): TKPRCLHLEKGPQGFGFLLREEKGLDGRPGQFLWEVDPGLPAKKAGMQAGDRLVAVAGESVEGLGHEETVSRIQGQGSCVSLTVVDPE
PARD3B_3, Q8TEW8, sequence (Q8TEW8 490-594): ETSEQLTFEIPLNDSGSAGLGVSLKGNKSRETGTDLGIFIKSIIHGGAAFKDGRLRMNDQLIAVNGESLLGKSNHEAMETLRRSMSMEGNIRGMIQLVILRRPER
LIMK1, P53667, sequence (P53667 155-268): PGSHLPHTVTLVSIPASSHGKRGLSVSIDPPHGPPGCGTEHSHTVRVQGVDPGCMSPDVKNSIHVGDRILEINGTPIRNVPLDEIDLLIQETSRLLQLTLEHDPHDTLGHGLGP
GRIP2_2, Q9C0E4, sequence (Q9C0E4 137-245): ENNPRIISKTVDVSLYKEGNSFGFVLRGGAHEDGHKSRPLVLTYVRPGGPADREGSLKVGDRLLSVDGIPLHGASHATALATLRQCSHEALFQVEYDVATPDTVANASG

B1: HPV35-E6, P27228 (peptide)
chain: SKPTRRETEV
B1 was tested, and the pKd (MAGI1_3, Q96QZ7; [1]) was 4.09, the pKd (MAGI1_6, Q96QZ7; [1]) was 3.66 and the pKd (MAGI3_4, Q5TCQ9; [1]) was 3.76. For the same binder, the pKd (MPDZ_2, O75970; [1]) was “below the threshold”, the pKd (MPDZ_3, O75970; [1]) was “below the threshold” and the pKd (MPDZ_7, O75970; [1]) was “below the threshold”. It also gave a pKd (NHERF4_3, Q86UT5; [1]) of 3.78, a pKd (PARD3B_3, Q8TEW8; [1]) of 3.73 and a pKd (PDLIM4, P50479; [1]) of 4.16. The pKd (PDZD11, Q5EBL8; [1]) was “below the threshold”, the pKd (PDZD2_5, O15018; [1]) was 3.77 and the pKd (PDZRN3_2, Q9UPQ7; [1]) was 3.57. The pKd (PDZRN4_2, Q6ZMN7; [1]) was “below the threshold”, the pKd (PREX2_2, Q70Z35; [1]) was 3.62 and the pKd (PTPN13_4, Q12923; [1]) was “below the threshold”. The pKd (PTPN13_5, Q12923; [1]) was “below the threshold”, the pKd (SHROOM4, Q9ULL8; [1]) was “below the threshold” and the pKd (SYNPO2L, Q9H987; [1]) was “below the threshold”. For the same binder, the pKd (TJP3_1, O95049; [1]) was “below the threshold”.

B2: HPV18-E6, P06463 (peptide)
chain: RLQRRRETQV
With B2 the pKd (CNKSR1, Q969H4; [1]) was “below the threshold”, the pKd (GRIP2_2, Q9C0E4; [1]) was 4.48 and the pKd (LIMK1, P53667; [1]) was “below the threshold”. The pKd (MAGI1_3, Q96QZ7; [1]) was “below the threshold”, the pKd (MAGI1_6, Q96QZ7; [1]) was “below the threshold” and the pKd (MAGI3_4, Q5TCQ9; [1]) was “below the threshold”. For the same binder, the pKd (MPDZ_2, O75970; [1]) was “below the threshold”, the pKd (MPDZ_3, O75970; [1]) was “below the threshold” and the pKd (MPDZ_7, O75970; [1]) was “below the threshold”. The pKd (NHERF4_3, Q86UT5; [1]) was “below the threshold”, the pKd (PARD3B_3, Q8TEW8; [1]) was “below the threshold” and the pKd (PDLIM4, P50479; [1]) was “below the threshold”. For the same binder, the pKd (PDZD11, Q5EBL8; [1]) was “below the threshold”, the pKd (PDZD2_5, O15018; [1]) was “below the threshold” and the pKd (PDZRN4_2, Q6ZMN7; [1]) was “below the threshold”. For the same binder, the pKd (PREX2_2, Q70Z35; [1]) was 4, the pKd (PTPN13_4, Q12923; [1]) was 4.03 and the pKd (PTPN13_5, Q12923; [1]) was “below the threshold”. The pKd (SHROOM4, Q9ULL8; [1]) was “below the threshold”, the pKd (SYNPO2L, Q9H987; [1]) was “below the threshold” and the pKd (TJP3_1, O95049; [1]) was “below the threshold”.

B3: SARS-CoV2-E, P0DTC4 (peptide)
chain: NLNSSRVPDLLV
In the case of B3, the pKd (CNKSR1, Q969H4; [2]) is reported as “below the threshold”, the pKd (GRIP2_2, Q9C0E4; [2]) is reported as “below the threshold” and the pKd (LIMK1, P53667; [2]) is reported as “below the threshold”. The pKd (MAGI1_3, Q96QZ7; [2]) was “below the threshold”, the pKd (MAGI1_6, Q96QZ7; [2]) was “below the threshold” and the pKd (MAGI3_4, Q5TCQ9; [2]) was “below the threshold”. For the same binder, the pKd (MPDZ_2, O75970; [2]) was “below the threshold”, the pKd (MPDZ_3, O75970; [2]) was “below the threshold” and the pKd (MPDZ_7, O75970; [2]) was “below the threshold”. The pKd (NHERF4_3, Q86UT5; [2]) was “below the threshold”, the pKd (PARD3B_3, Q8TEW8; [2]) was “below the threshold” and the pKd (PDLIM4, P50479; [2]) was “below the threshold”. For the same binder, the pKd (PDZD11, Q5EBL8; [2]) was “below the threshold”, the pKd (PDZD2_5, O15018; [2]) was “below the threshold” and the pKd (PDZRN3_2, Q9UPQ7; [2]) was “below the threshold”. The pKd (PDZRN4_2, Q6ZMN7; [2]) was “below the threshold”, the pKd (PREX2_2, Q70Z35; [2]) was “below the threshold” and the pKd (PTPN13_4, Q12923; [2]) was 4.64. The pKd (PTPN13_5, Q12923; [2]) was “below the threshold”, the pKd (SHROOM4, Q9ULL8; [2]) was “below the threshold” and the pKd (SYNPO2L, Q9H987; [2]) was “below the threshold”. For the same binder, the pKd (TJP3_1, O95049; [2]) was “below the threshold”.
